The record followed here is article PMC8521305.

For the assay, the target named is glycophorin A (GlyA) TMH. The experiment in a line: SEC. In general terms: Size exclusion chromatography separates by hydrodynamic size, large species first.

In turn, “glycophorin A (GlyA) TMH (domain or fragment)” returned a stoichiometry N (helices per nanodisc) of 2.
